Results reported in US20140298544A1, “Engineered PEP carboxylase variants for improved plant productivity” (PIONEER HI BRED INTERNATIONAL INC, priority 2011, published 2014).
Positions count from the first letter of the chain named.

B1: 3D10-G8: maize C4 PEPC variant, 14 amino acid substitutions, SEQ ID NO: 20 (protein)
chain: MASTKAPGPGEKHHSIDAQLCQLVPGKVSEDDKLIEYDALLVDRFLNILQDLHGPSLREFVQECYEVSADYEGKGDTTKLGELGAKLTGLAPADAILVASSILHMLNLANLAEEAQIALRRRNSKLKKGGFADEGSATTESDIEETLKRLVSEVGKSPEEVFEALKDQTVDLVFTAHPTQSARRSLLQKNARIRNCLTQLNAKDITDDDKQELDEALQREIQAAFRTDEIRRAQPTPQDEMRYGMSYIHETVWKGVPKFLRRVDTALKNIGINERLPYNVSLIRFSSWMGGDRDGNPRVTPEVTRDVCLLARMMAANLYIDQIEELMFELSMWRCNDELRVRAEELHASAGSKVTKYYIEFWKQIPPNEPYRVILGHVRDKLYNTRERARHLLASGVSEISAESSFTSIEEFLEPLELCYKSLCDCGDKAIADGSLLDLLRQVFTFGLSLVKLDIRQESERHTDVIDAITTYLGIGSYREWSEDKRQEWLLSELKGKRPLLPPDLPQTDEIADVIGAFHVLAELPPDSFGPYIISMATAPSDVLAVELLQRECGIKQPLPVVPLFERLADLQSAPASVERLFSVDWYMDRIKGKQQVMVGYSDSGKDAGRLSAAWQLYKAQEEMAQVAKRYGVKLTLFHGRGGTVGRGGGPTHLAILSQPPDTINGSIRVTVQGEVIEFCFGEEHLCFQTLQRFTAATLEHGMHPPVSPKPEWRKLMDEMAVVATEEYRSVVVKEPRFVEYFRSATPETEYGRMNIGSRPAKRRPGGGITTLRAIPWIFSWTQTRFHLPVWLGVGAAFKWAIDKDVKNFQVLKEMYNEWPFFRVTLDLLEMVFAKGDPGIAGLYDELLVAEELKPFGKQLRDKYVETQQLLLQIAGHKDILEGDPFLKRGLVLRNPYITTLNVFQAYTLKRIRDPNFKVTPQPPLSKEFADENKPAGLVKLNPASEYPPGLEDTLILTMKGIAAGMQNTG
modifications: shuffled variant
B2: 3D5-D12: maize C4 PEPC variant, 7 amino acid substitutions, SEQ ID NO: 24 (protein)
chain: MASTKAPGPGEKHHSIDAQLRQLVPGKVSEDDKLIEYDALLVDRFLNILQDLHGPSLREFVQECYEVSADYEGKGDTTKLGELGARLTGLAPADAILVASSILHMLNLANLAEEAQIAHRRRNSKLKKGGFADEGSATTESDIEETLKRLVSEVGKSPEEVFEALKNQTVDLVFTAHPTQSARRSLLQKNAGIRNCLTQLNAKDITDDDKQELDEALQREIQAAFRTDEIRRAQPTPQDEMRYGMSYIHETVWKGVPKFLRRVDTALKNIGINERLPYNVSLIRFSSWMGGDRDGNPRVTPEVTRDVCLLARMMAANLYIDQIEELMFELSMWRCNDELRVRAEELHASAGSKVTKYYIEFWKQIPPNEPYRVILGHVRDKLYNTRERARHLLASGVSEISAESSFTSIEEFLEPLELCYKSLCDCGDKAIADGSLLDLLRQVFTFGLSLVKLDIRQESERHTDVIDAITTHLGIGSYREWSEDKRQEWLLSELKGKRPLLPPDLPQTDEIADVIGAFHVLAELPPDSFGPYIISMATAPSDVLAVELLQRECGVRQPLPVVPLFERLADLQSAPASVERLFSVDWYMDRIKGKQQVMVGYSDSGKDAGRLSAAWQLYRAQEEMAQVAKRYGVKLTLFHGRGGTVGRGGGPTHLAILSQPPDTINGSIRVTVQGEVIEFCFGEEHLCFQTLQRFTAATLEHGMHPPVSPKPEWRKLMDEMAVVATEEYRSVVVKEPRFVEYFRSATPETEYGRMNIGSRPAKRRPGGGITTLRAIPWIFSWTQTRFHLPVWLGVGAAFKFAIDKDVKNFQVLKEMYNEWPFFRVTLDLLEMVFAKGDPGIAGLYDELLVAEELKPFGKQLRDKYVETQQLLLQIAGHKDILEGDPFLKQGLVLRNPYITTLNVFQAYTLKRIRDPNFKVTPQPPLSKEFADENKPAGLVKLNPASEYPPGLEDTLILTMKGIAAGMQNTG
modifications: shuffled variant
B3: WT: wild-type maize C4 PEPC enzyme, SEQ ID NO: 26 (protein)
chain: B2 chain with R86K, A115V, G192R, A348S, A350S, K495R, K807R
modifications: Zea mays

system: maize C4 PEPC; assay: Kinetic and regulatory properties of PEPC variants (expressed in E. coli); format: biochemical; conditions: PEP substrate, no activators
Text: Libraries of modified PEPC polynucleotides were generated using recursive sequence recombination methods (Stemmer, Proc. Natl. Acad. Sci USA 91:10747-10751; Ness, et. al., Nature Biotechnology 20:1251-1255), also known as gene shuffling methods. These libraries incorporated diversity from related PEPC enzymes and also incorporated other designed and random changes. The starting polynucleotide sequence in which the diversity was incorporated was the maize C4 PEPC as shown in SEQ ID NO: 25. Each PEPC variant was expressed in E. coli as a thioredoxin fusion using the pET 32 expression vector (Novagen) with the E. coli expression strain Rosetta gami 2 BL21 DE3 pLYS S. Cultures expressing the variants were grown in 96-well culture blocks, lysed, and then PEPC activity and PEPC protein abundance were determined. The variants with high specific activity were subjected to further rounds of shuffling, for a total of 3 rounds. Examples of nucleotide and amino acid sequences of PEPC variants obtained with this method are SEQ ID NO: 4 to 24.
Detailed kinetic studies of PEPC variants were done in accordance with methods known in the art. See, for example, Tovar-Mendez et al. (2000) Plant Physiol. 123: 149-160; Tover-Mendez et al. (1998) Biochem. J. 332: 633-642.
PEPC variants had several improved properties in comparison with wild type PEPC, including greater affinity (lower S0.5 values) with respect to the bicarbonate substrate, greater Kcat/S0.5 values with the bicarbonate or PEP substrates, greater activation (lower A0.5 values) with […] or glycine as activators and greater Ki values with malate as inhibitor.

Row | Molecule | PEP, no activators kcat/S0.5 [M⁻¹ s⁻¹]
1 | B1 | 86200
2 | B2 | 151000
3 | B3 | 34100

same assay, conditions: PEP substrate, no activators; relative to wild type

Row | Molecule | PEP, no activators kcat/S0.5 % wt [% wt]
4 | B1 | 253
5 | B2 | 442
6 | B3 | 100

same assay, conditions: PEP substrate, with activators

Row | Molecule | PEP, with activators kcat/S0.5 [M⁻¹ s⁻¹]
7 | B1 | 4.613e+06
8 | B2 | 5.551e+06
9 | B3 | 2.443e+06

same assay, conditions: PEP substrate, with activators vs no activators

Row | Molecule | kcat/S0.5 Fold incr. [Fold incr.]
10 | B1 | 53.5
11 | B2 | 36.9
12 | B3 | 71.6

same assay, conditions: PEP substrate, with activators; relative to wild type

Row | Molecule | PEP, with activators kcat/S0.5 % wt [% wt]
13 | B1 | 189
14 | B2 | 227
15 | B3 | 100

same assay, conditions: activator Glc-6-P

Row | Molecule | Glc-6-P Vmax Fold incr [Fold incr]
16 | B1 | 2.5
17 | B2 | 4.3
18 | B3 | 23.1

same assay, conditions: activator Glc-6-P; read-out: Glc-6-P A0.5

Row | Molecule | EC50 [µM]
19 | B1 | 920
20 | B2 | 1880
21 | B3 | 6800

same assay, conditions: activator Glc-6-P; relative to wild type

Row | Molecule | Glc-6-P A0.5 % wt [% wt]
22 | B1 | 14
23 | B2 | 28
24 | B3 | 100

same assay, conditions: activator glycine

Row | Molecule | Glycine Vmax Fold incr [Fold incr]
25 | B1 | 3.6
26 | B2 | 4.1
27 | B3 | 15.9

same assay, conditions: activator glycine; read-out: Glycine A0.5

Row | Molecule | EC50 [µM]
28 | B1 | 230
29 | B2 | 320
30 | B3 | 3620

same assay, conditions: activator glycine; relative to wild type

Row | Molecule | Glycine A0.5 % wt [% wt]
31 | B1 | 6
32 | B2 | 9
33 | B3 | 100

same assay, conditions: bicarbonate substrate

Row | Molecule | HCO3 S0.5 [mM] | HCO3 kcat/S0.5 [M⁻¹ s⁻¹]
34 | B1 | 0.0255 | 3.2e+06
35 | B2 | 0.0277 | 3.454e+06
36 | B3 | 0.0282 | 2.122e+06

same assay, conditions: bicarbonate substrate; relative to wild type

Row | Molecule | HCO3 kcat/S0.5 % wt [% wt]
37 | B1 | 151
38 | B2 | 163
39 | B3 | 100

same assay, conditions: inhibitor malate

Row | Molecule | Ki [µM]
40 | B1 | 5000
41 | B2 | 4000
42 | B3 | 400

same assay, conditions: inhibitor malate; relative to wild type

Row | Molecule | Malate Ki % wt [% wt]
43 | B1 | 1250
44 | B2 | 1000
45 | B3 | 100
